Values joined by “and” are separate entries in the source; they are usually repeats but may differ in a detail not shown here. Identical values can stand only once.

What is called stoichiometry N is a count of units in the complex or per binding partner.

Test [1] concerns the target X. laevis oocyte GAPDH (glyceraldehyde 3-phosphate dehydrogenase, somatic form; GAPDH.s and GAPDH.l) (X. laevis (endogenous in oocytes)) (UniProt P51469). Description: native gel or EMSA; oocyte nuclear (up to 0.5 nuclei) and cytoplasmic (0.05 cytoplasm) homogenates in HR buffer on Invitrogen 4-16% NativePAGE Bis-Tris gel, Western blotting; compared with the bands of recombinant human GAPDH; second-dimension SDS-PAGE for cytoplasm. For orientation: A gel shift assay detects complexes by their altered migration in electrophoresis.

The target in test [2] is Pyruvate kinase M2 (PKM2) of the X. laevis oocyte nucleus (X. laevis (endogenous in oocytes)). Description: native gel or EMSA; oocyte nuclear homogenate, native PAGE as in Sen et al. (2016), 2x loading buffer with 200 mM KCl, Western blotting with anti-PKM2; Precision Plus markers.
The target of test [3] is recombinant human GAPDH (glyceraldehyde 3-phosphate dehydrogenase) (human) (UniProt P04406). Description: native gel or EMSA; purified recombinant human GAPDH (1 ug) on Invitrogen 4-16% NativePAGE Bis-Tris gel, Western blotting; bands confirmed as GAPDH by second-dimension SDS-PAGE (about 36 kDa).

Chain of recombinant human GAPDH (glyceraldehyde 3-phosphate dehydrogenase), P04406 1-335 (enzyme; other documents disagree on this pair) (P04406 whole entry): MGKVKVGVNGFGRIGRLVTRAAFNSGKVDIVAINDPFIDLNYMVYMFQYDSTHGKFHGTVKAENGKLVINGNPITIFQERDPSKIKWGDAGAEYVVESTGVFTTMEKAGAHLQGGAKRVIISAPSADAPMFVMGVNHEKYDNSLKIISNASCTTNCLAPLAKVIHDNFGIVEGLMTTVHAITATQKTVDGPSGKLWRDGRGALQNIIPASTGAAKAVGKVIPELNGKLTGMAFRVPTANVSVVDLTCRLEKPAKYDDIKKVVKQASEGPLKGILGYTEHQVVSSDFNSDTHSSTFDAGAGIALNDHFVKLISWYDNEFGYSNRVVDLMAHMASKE
Chain of X. laevis oocyte GAPDH (glyceraldehyde 3-phosphate dehydrogenase, somatic form; GAPDH.s and GAPDH.l) (P51469 whole entry): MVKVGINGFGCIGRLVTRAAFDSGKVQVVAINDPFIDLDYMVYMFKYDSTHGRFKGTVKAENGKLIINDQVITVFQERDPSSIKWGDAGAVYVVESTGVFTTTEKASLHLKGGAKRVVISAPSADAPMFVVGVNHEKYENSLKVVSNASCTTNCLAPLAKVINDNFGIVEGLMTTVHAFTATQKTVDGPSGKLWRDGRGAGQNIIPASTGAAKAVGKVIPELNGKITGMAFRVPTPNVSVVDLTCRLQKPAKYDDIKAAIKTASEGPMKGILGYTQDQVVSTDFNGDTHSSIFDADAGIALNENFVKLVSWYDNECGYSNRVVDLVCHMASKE

As to “X. laevis oocyte GAPDH (glyceraldehyde 3-phosphate dehydrogenase, somatic form; GAPDH.s and GAPDH.l) (from UniProt P51469 1-333) (enzyme)”, in test [1], the stoichiometry N stood at 4. For the substance “Pyruvate kinase M2 (PKM2) of the X. laevis oocyte nucleus (enzyme)”, the stoichiometry N in test [2] was 4. Turning to “recombinant human GAPDH (glyceraldehyde 3-phosphate dehydrogenase), P04406 1-335 (enzyme; other documents disagree on this pair)”, the stoichiometry N in test [3] is 2 and 4.

The values above are taken from PMC10470895.
